In the supplement of paper PMC9112550, “Optimization of the antimicrobial peptide Bac7 by deep mutational scanning” (BMC Biology, 2022):

Tested on: Escherichia coli TOP10
Test: shrunken log2 fold change of peptide-encoding DNA abundance (4.5 h post-induction vs induction); higher = less antimicrobial activity (less host growth inhibition)
Conditions: time post-induction: 4.5 h; library: site-saturation at positions 5, 18, 19, 20
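Also: peptides expressed intracellularly from a pBAD plasmid library in pooled LB shake-flask culture, induced with 0.3% L-arabinose, DNA abundance read by NGS, three biological replicates, DESeq2 with apeglm shrinkage.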

Sequence | shrunken log2 fold change
RRIRVRPPRLPRPRPRPAISPRP | -0.122
RRIRNRPPRLPRPRPRPGLFPRP | 0.0823
RRIRTRPPRLPRPRPRPFYEPRP | -0.518
RRIRERPPRLPRPRPRPELLPRP | -0.000642
RRIRSRPPRLPRPRPRPKTWPRP | -0.0488
RRIRMRPPRLPRPRPRPCSNPRP | 0.0191
RRIRARPPRLPRPRPRPEVIPRP | 0.349
RRIRPRPPRLPRPRPRPYAKPRP | 0.258
RRIRIRPPRLPRPRPRPTPVPRP | 0.234
RRIRYRPPRLPRPRPRPYSIPRP | -0.264
RRIRPRPPRLPRPRPRPYHCPRP | -0.0484
RRIRHRPPRLPRPRPRPFLVPRP | -0.106
RRIRCRPPRLPRPRPRPKMVPRP | -0.0546
RRIRRRPPRLPRPRPRPDRSPRP | -0.0169
RRIRTRPPRLPRPRPRPCQAPRP | -0.0455
RRIRNRPPRLPRPRPRPYRCPRP | -0.153
RRIRVRPPRLPRPRPRPSPWPRP | 0.021
RRIRCRPPRLPRPRPRPFKKPRP | -0.319
RRIRDRPPRLPRPRPRPDRWPRP | 0.366
RRIRERPPRLPRPRPRPMPTPRP | -0.00177
RRIRCRPPRLPRPRPRPCNTPRP | -0.306
RRIRKRPPRLPRPRPRPNQTPRP | 0.00514
RRIRKRPPRLPRPRPRPQAEPRP | 0.0754
RRIRLRPPRLPRPRPRPHHIPRP | -0.343
RRIRPRPPRLPRPRPRPPIKPRP | 0.355

Sequence | shrunken log2 fold change
RRIRFRPPRLPRPRPRPSAYPRP | -0.791
RRIRARPPRLPRPRPRPLGAPRP | 0.726
RRIRTRPPRLPRPRPRPAHNPRP | -0.215
RRIRVRPPRLPRPRPRPRMAPRP | 0.199
RRIRDRPPRLPRPRPRPTGDPRP | 0.209
RRIRARPPRLPRPRPRPREAPRP | 1.25
RRIRHRPPRLPRPRPRPNRNPRP | -1.01
RRIRLRPPRLPRPRPRPAGVPRP | 0.103
RRIRMRPPRLPRPRPRPHVNPRP | -0.132
RRIRNRPPRLPRPRPRPITTPRP | -0.225
RRIRERPPRLPRPRPRPEQAPRP | 0.143
RRIRLRPPRLPRPRPRPNRMPRP | 1.82
RRIRNRPPRLPRPRPRPWLIPRP | -0.0217
RRIRMRPPRLPRPRPRPEQFPRP | 0.216
RRIRCRPPRLPRPRPRPDWIPRP | -0.159
RRIRYRPPRLPRPRPRPPDLPRP | -0.212
RRIRYRPPRLPRPRPRPVPNPRP | -0.0518
RRIRNRPPRLPRPRPRPDHAPRP | -0.0118
RRIRYRPPRLPRPRPRPDYLPRP | -1.57
RRIRVRPPRLPRPRPRPEDIPRP | -0.311
RRIRSRPPRLPRPRPRPISQPRP | -0.387
RRIRDRPPRLPRPRPRPGMGPRP | 0.645
RRIRKRPPRLPRPRPRPCVAPRP | 0.223
RRIRWRPPRLPRPRPRPGRDPRP | 0.122
RRIRPRPPRLPRPRPRPMDMPRP | -0.784
